Experimental data as given in patent US7355015B1, “Matriptase, a serine protease and its applications” (Georgetown University School of Medicine, priority 1999, dated 2008).

Assays:
matriptase [1] = molecular target: T1, matriptase (Homo sapiens, UniProt Q9Y5Y6); experiment: Fluorescent substrate assay and zymography with BBI; assay type: biochemical
T1 sequence (Q9Y5Y6 1-855): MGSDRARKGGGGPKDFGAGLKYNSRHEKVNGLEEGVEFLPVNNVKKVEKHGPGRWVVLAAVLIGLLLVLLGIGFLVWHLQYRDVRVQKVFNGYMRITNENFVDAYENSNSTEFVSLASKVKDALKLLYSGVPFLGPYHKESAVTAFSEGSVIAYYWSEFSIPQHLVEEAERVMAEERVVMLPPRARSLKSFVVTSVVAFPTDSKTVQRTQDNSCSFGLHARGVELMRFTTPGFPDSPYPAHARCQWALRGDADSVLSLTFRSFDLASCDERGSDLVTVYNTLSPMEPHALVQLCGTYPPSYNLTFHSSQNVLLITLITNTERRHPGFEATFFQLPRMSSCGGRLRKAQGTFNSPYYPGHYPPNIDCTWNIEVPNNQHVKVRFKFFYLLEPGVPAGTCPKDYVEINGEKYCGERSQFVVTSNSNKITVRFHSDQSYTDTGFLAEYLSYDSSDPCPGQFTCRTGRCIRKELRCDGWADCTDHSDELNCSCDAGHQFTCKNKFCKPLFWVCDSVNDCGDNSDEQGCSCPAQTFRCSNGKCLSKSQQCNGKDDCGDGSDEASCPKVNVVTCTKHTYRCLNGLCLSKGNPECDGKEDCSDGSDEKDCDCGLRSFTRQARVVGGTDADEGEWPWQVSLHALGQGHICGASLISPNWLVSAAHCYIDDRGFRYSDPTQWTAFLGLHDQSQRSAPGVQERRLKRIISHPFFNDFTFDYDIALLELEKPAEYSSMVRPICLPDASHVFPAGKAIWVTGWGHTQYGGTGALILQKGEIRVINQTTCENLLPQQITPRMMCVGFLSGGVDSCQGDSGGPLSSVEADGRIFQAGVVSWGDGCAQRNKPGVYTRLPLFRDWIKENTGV
Method: A concentrate of BBI, BBIC, can be administered in dosage sufficient to obtain a blood level of 0.001 to 1 mM concentration of BBI in the blood as a means of inhibiting tumor initiation in a susceptible to breast cancer. As indicated by presence of matriptase in nipple aspirate or in tissue from biopsy, including tissue from needle biopsy. […] BBI interacts directly with the serine protease active site on matriptase.

human plasmin = human plasmin (Homo sapiens, UniProt P00747); settings: cited from earlier work
Chain of human plasmin (P00747 581-810 limits assumed): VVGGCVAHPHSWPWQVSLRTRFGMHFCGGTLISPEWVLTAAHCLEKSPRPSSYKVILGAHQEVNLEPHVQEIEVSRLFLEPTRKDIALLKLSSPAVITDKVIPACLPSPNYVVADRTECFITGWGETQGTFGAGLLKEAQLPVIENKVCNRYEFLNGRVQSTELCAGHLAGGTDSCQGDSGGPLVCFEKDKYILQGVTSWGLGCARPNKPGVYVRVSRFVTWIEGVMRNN
Chain of human plasmin (P00747 97-580 partner limits assumed): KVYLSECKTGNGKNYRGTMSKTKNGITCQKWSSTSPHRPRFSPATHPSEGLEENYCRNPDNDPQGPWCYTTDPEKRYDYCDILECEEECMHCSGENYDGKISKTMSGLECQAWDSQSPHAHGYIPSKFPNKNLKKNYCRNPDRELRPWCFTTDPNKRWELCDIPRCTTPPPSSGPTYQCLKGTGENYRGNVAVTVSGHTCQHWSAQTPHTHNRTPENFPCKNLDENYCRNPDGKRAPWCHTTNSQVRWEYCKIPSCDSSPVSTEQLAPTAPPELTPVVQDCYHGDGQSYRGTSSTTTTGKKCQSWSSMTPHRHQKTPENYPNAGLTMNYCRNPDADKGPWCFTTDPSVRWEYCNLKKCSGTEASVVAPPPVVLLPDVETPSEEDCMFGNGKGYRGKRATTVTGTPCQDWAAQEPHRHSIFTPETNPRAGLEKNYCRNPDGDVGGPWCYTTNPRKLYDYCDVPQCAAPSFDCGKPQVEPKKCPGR

human tissue kallikrein = human tissue kallikrein (Homo sapiens, UniProt P06870); settings: cited from earlier work
Chain of human tissue kallikrein (P06870 25-262): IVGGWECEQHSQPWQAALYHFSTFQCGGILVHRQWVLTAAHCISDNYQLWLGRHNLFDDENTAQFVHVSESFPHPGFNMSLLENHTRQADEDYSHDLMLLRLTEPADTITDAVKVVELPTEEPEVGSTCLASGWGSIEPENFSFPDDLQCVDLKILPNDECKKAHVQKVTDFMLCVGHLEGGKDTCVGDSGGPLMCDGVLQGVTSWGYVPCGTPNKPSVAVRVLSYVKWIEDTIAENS

human plasma kallikrein = human plasma kallikrein (Homo sapiens, UniProt P03952); settings: cited from earlier work
Chain of human plasma kallikrein (P03952 20-638): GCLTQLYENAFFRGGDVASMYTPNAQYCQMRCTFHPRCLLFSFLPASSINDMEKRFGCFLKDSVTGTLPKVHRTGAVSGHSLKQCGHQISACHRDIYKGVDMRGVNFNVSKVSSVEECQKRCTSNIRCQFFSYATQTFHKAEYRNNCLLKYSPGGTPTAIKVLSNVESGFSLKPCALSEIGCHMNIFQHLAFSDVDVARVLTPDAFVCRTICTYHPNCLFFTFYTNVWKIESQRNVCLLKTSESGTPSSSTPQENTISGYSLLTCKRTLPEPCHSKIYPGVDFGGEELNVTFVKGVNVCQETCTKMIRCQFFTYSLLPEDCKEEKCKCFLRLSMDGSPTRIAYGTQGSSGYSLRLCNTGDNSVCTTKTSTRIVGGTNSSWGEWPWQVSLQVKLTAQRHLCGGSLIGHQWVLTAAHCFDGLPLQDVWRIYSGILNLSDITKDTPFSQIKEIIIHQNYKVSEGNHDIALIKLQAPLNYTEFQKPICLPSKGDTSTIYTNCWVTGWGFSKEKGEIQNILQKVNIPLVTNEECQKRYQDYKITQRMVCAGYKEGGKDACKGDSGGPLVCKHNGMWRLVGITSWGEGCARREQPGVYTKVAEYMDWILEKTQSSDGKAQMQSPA

human factor XIa = human factor XIa (Homo sapiens, UniProt P03951); settings: cited from earlier work
Chain of human factor XIa (P03951 388-625 limits assumed): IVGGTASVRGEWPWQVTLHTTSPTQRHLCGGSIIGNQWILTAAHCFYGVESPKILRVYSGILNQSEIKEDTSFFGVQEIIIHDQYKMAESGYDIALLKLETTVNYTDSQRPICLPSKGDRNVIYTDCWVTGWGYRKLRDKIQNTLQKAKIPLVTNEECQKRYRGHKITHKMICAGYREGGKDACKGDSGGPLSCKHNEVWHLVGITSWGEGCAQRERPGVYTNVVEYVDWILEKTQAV
Chain of human factor XIa (P03951 19-387 partner limits assumed): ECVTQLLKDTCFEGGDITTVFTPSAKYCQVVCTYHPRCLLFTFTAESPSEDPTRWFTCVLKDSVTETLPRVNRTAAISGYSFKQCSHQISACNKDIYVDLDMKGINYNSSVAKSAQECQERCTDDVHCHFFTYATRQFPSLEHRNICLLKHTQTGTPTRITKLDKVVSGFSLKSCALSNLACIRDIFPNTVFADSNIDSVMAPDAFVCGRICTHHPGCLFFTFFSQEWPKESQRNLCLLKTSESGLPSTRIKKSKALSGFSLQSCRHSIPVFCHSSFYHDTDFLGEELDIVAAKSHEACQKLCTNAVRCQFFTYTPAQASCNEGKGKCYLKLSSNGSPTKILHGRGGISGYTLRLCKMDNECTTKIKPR

matriptase [2] = molecular target: T2, matriptase (Homo sapiens, UniProt Q9Y5Y6); experiment: Cleavage rate assay with fluorescent substrate BOC-Gln-Ala-Arg-AMC after matriptase/HAI-1 complex formation; assay type: biochemical; settings: pH 8.5
T2 construct: from tissue; host or cells: human milk
T2 sequence (Q9Y5Y6 615-855 limits assumed): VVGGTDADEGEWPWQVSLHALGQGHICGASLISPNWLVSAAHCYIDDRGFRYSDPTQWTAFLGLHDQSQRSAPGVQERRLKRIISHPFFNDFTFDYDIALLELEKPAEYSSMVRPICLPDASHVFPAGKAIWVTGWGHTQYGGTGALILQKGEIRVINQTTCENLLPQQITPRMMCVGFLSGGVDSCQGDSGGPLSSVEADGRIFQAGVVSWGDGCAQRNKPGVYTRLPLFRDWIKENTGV
T2 sequence (Q9Y5Y6 190-614 partner limits assumed): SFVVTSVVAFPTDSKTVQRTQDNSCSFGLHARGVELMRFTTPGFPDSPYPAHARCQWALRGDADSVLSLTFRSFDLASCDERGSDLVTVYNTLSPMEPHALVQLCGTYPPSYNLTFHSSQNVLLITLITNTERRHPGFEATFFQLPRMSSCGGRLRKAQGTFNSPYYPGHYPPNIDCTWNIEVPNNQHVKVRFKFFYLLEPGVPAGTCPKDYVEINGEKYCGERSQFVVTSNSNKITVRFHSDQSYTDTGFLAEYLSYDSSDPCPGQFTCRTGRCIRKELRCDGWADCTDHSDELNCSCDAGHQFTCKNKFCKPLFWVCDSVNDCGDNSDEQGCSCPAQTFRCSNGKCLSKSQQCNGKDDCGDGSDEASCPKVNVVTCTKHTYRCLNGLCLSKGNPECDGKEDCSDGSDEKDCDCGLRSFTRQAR
Method: (§1) Matriptase and HAI-1 were isolated from human milk by anti-matriptase mAb 21-9 immunoaffinity chromatography, as described in Example 1, and were maintained in an uncomplexed status in elution buffer, 0.1 M glycine, pH 2.4. This preparation was brought to pH 8.5, incubated at 37° C. for 0, 5, 30 and 60 min., and subjected to immunoblotting using anti-matriptase mAb 21-9 (panel A), gelatin zymography (panel B), and to a cleavage rate assay using the synthetic, fluorescent substrate, BOC—Gin—Ala—Agr-7-amido 4-methylcoumarin (panel C). […] A milk-derived, matriptase-related 110-kDa protease (as indicated in panel A), which was not a complex of matriptase and HAI-1, and whose migration on SDS gel was reduced after boiling (see Example 1).
Proteolytic activity of matriptase determined by cleavage of trypsin substrate, BOC—Gln—Ala—Arg—AMC: A variety of synthetic, fluorescent protease substrates with arginine or lysine as P1 sites can be cleaved by matriptase, as described in Example 2. Among these substrates, t-butyloxycarbonyl (BOC)—Gln—Ala—Arg-7-amino-4-methylcoumarin (Sigma; St. Louis, Mo.) is likely to be the best one. Using this substrate, matriptase was assayed in 20 mM Tris buffer pH 8.5 at 25° C. in a total volume of 200 μl. The final substrate concentration was 0.1 mM. The rate of cleavage was determined with a fluorescence spectrophotometer (Hitachi, F-4500). […]

matriptase [3] = molecular target: T2, matriptase; experiment: Gelatin zymography of matriptase/HAI-1 preparation; assay type: biochemical
Method: as §1
Gelatin zymography: Gelatin zymography was carried out as previously described with some modifications (Brown et al., Biochem J. 101: 214-228 (1966)). Gelatin (1 mg/ml), as a substrate, was copolymerized with regular SDS-polyacrylamide gel. Electrophoresis was performed at a constant current of 15 mA. The gelatin gels were washed 3 times with PBS containing 2% Triton X-100 and incubated in PBS at 37° C. overnight.
Inhibition of matriptase activity by the interaction with HAI-1: HAI-1, a protein containing contains two protease inhibitory domains (Kunitz domains), was initially identified as a binding protein of matriptase. […]

[4] = molecular target: T3, 40-kDa fragment of hepatocyte growth factor activator inhibitor-1 (HAI-1)
T3 chain: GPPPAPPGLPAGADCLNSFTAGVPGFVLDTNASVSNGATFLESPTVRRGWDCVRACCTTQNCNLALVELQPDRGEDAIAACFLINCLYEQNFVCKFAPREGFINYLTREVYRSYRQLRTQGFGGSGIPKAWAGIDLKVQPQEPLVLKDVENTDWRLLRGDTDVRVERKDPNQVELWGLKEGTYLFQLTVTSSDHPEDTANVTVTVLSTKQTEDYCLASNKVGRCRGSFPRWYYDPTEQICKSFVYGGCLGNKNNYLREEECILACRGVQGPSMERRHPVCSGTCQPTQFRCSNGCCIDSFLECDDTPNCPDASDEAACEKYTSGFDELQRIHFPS

[5] = molecular target: T4, soybean-derived Bowman-Birk inhibitor (BBI), P01055
T4 chain: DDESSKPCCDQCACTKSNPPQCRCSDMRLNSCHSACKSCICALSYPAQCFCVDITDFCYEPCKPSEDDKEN

[6] = after 30 and 60 min incubation at 37° C.

B1: BBI: soybean-derived Bowman-Birk inhibitor of serine proteases (protein)
chain: DDESSKPCCDQCACTKSNPPQCRCSDMRLNSCHSACKSCICALSYPAQCFCVDITDFCYEPCKPSEDDKEN
Question: With B1 as the molecule, how does the “effect on matriptase activity” value (matriptase [1]) read?
Answer: decrease matriptase activity in a dose-dependent manner

B2: placenta bikunin: second Kunitz-type inhibitor with two Kunitz domains, isolated from human placenta (protein, UniProt O43291 28-252, looked up)
Kunitz-type protease …: ADRERSIHDFCLVSKVVGRCRASMPRWWYNVTDGSCQLFVYGGCDGNSNNYLTKEECLKKCATVTENATGDLATSRNAADSSVPSAPRRQDSEDHSSDMFNYEEYCTANAVTGPCRASFPRWYFDVERNSCNNFIYGGCRGNKNSYRSEEACMLRCFRQQENPPLPLGSKVVVLAGLFVMVLILFLGASMVYLIRVARRNQERALRTVWSSGDDKEQLVKNTYVL
Question: Which results are given for B2?
Answer: inhibition of human plasmin (human plasmin): strong inhibition; inhibition of human tissue kallikrein (human tissue kallikrein): strong inhibition; inhibition of human plasma kallikrein (human plasma kallikrein): strong inhibition; inhibition of human factor XIa (human factor XIa): strong inhibition

B3: HAI-1: Kunitz-type serine protease inhibitor, cognate inhibitor of matriptase, co-purified from human milk (protein, UniProt O43278 36-529, looked up)
Kunitz-type protease …: GPPPAPPGLPAGADCLNSFTAGVPGFVLDTNASVSNGATFLESPTVRRGWDCVRACCTTQNCNLALVELQPDRGEDAIAACFLINCLYEQNFVCKFAPREGFINYLTREVYRSYRQLRTQGFGGSGIPKAWAGIDLKVQPQEPLVLKDVENTDWRLLRGDTDVRVERKDPNQVELWGLKEGTYLFQLTVTSSDHPEDTANVTVTVLSTKQTEDYCLASNKVGRCRGSFPRWYYDPTEQICKSFVYGGCLGNKNNYLREEECILACRGVQGGPLRGSSGAQATFPQGPSMERRHPVCSGTCQPTQFRCSNGCCIDSFLECDDTPNCPDASDEAACEKYTSGFDELQRIHFPSDKGHCVDLPDTGLCKESIPRWYYNPFSEHCARFTYGGCYGNKNNFEEEQQCLESCRGISKKDVFGLRREIPIPSTGSVEMAVAVFLVICIVVVVAILGYCFFKNQRKDFHGHHHHPPPTPASSTVSTTEDTEHLVYNHTTRPL
Question: Which “activity by cleavage of fluorescent substrate” value (matriptase [2]; [6]) does the source give for B3 here?
Answer: negligible activity

Question: What about the “cleavage rate for fluorescent substrate, remaining” value (matriptase [2]; after 5 min incubation at 37° C.) of the same molecule?
Answer: 18%

Question: And the “gelatinolytic activity by gelatin zymography” value (matriptase [3]; [6])?
Answer: negligible activity

Question: What about the “gelatinolytic activity of complexed matriptase” value (matriptase [3]; after 5 min incubation at 37° C., versus uncomplexed matriptase) of the same molecule?
Answer: much weaker activity

B4: two-chain (active) form of matriptase, milk-derived, released from its complexes (protein)
chain 1: SFVVTSVVAFPTDSKTVQRTQDNSCSFGLHARGVELMRFTTPGFPDSPYPAHARCQWALRGDADSVLSLTFRSFDLASCDERGSDLVTVYNTLSPMEPHALVQLCGTYPPSYNLTFHSSQNVLLITLITNTERRHPGFEATFFQLPRMSSCGGRLRKAQGTFNSPYYPGHYPPNIDCTWNIEVPNNQHVKVRFKFFYLLEPRRACGTCPKDYVEINGEKYCGERSQFVVTSNSNKITVRFHSDQSYTDTGFLAEYLSYDSSDPCPGQFTCRTGRCIRKELRCDGWADCTDHSDELNCSCDAGHQFTCKNKFCKPLFWVCDSVNDCGDNSDEQGCSCPAQTFRCSNGKCLSKSQQCNGKDDCGDGSDEASCPKVNVVTCTKHTYRCLNGLCLSKGNPECDGKEDCSDGSDEKDCDCGLRSFTRQAR
chain 2: VVGGTDADEGEWPWQVSLHALGQGHICGASLISPNWLVSAAHCYIDDRGFRYSDPTQWTAFLGLHDQSQRSAPGVQERRLKRIISHPFFNDFTFDYDIALLELEKPAEYSSMVRPICLPDASHVFPAGKAIWVTGWGHTQYGGTGALILQKGEIRVINQTTCENLLPQQITPRMMCVGFLSGGVDSCQGDSGGPLSSVEADGRIFQAGVVSWGDGCAQRNKPGVYTRLPLFRDWIKENTGV
Question: Which “cleavage rate of the fluorescent substrate BOC-Gln-Ala-Arg-7-amido-4-methylcoumarin after 5 min at 37° C., pH 8.5” value [4] does the source give for B4 here?
Answer: the cleavage rate for fluorescent substrate was significantly reduced, down to 18%

Question: What about the “gelatin zymography and cleavage of fluorescent substrate after 30 and 60 min at 37° C., pH 8.5” value [4] of the same molecule?
Answer: negligible activity was observed by gelatin zymography (panel B) and by cleavage of fluorescent substrate

Question: What about the “rate of cleavage of a synthetic, fluorescent substrate” value [4] of the same molecule?
Answer: the rate of cleavage of a synthetic, fluorescent substrate by matriptase was decreased following complex formation

Question: What about the “matriptase activity by fluorescent substrate assay and zymography” value [5] of the same molecule?
Answer: BBI can decrease matriptase activity in a dose-dependent manner
